The values that follow come from publication PMC6238531, “The ER morphology-regulating lunapark protein induces the formation of stacked bilayer discs” (Life Science Alliance, 2018).

This experiment deals with T1, SBP-tagged full-length human Lnp (human, UniProt Q9C0E8 1-428).
T1 construct: lunapark (Lnp), human, full length; a tobacco etch virus protease cut site stands between Lnp and the SBP tag; Membrane protein with two TM segments, kept in 0.05% Triton X-100 in the pull-down; also called lunapark; SBP-tagged human Lnp; source: S. cerevisiae (pRS425, GAL1 promoter), purified in Triton X-100 (streptavidin resin, biotin elution, SEC on Superose 6); not shown: SBP, C-terminal, kept
T1 sequence (looked up): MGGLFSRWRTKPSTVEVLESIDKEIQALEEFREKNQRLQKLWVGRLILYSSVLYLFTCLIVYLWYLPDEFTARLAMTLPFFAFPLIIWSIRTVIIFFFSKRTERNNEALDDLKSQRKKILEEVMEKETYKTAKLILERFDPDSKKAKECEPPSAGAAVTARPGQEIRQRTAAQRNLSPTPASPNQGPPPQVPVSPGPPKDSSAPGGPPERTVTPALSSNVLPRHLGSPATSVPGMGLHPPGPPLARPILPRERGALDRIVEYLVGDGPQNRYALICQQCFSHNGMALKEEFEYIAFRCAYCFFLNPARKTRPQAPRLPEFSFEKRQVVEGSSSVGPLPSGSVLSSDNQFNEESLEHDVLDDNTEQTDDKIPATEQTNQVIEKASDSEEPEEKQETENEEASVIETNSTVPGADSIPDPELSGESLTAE
The experiment can be described thus: pull-down; SBP-tagged human Lnp mixed with His10-tagged Lnp (molar ratio 1:3 or 1:5), 1 h at 4°C in 20 mM Hepes pH 7.5, 100 mM KCl, 1 mM dithiothreitol, 0.05% Triton X-100; held on streptavidin resin, washed, eluted with 2 mM biotin; SDS-PAGE and Coomassie blue staining. The settings on record: both partners purified.

B1: His10-tagged full-length human Lnp (natural protein, UniProt Q9C0E8 1-428, looked up)
chain: MGGLFSRWRTKPSTVEVLESIDKEIQALEEFREKNQRLQKLWVGRLILYSSVLYLFTCLIVYLWYLPDEFTARLAMTLPFFAFPLIIWSIRTVIIFFFSKRTERNNEALDDLKSQRKKILEEVMEKETYKTAKLILERFDPDSKKAKECEPPSAGAAVTARPGQEIRQRTAAQRNLSPTPASPNQGPPPQVPVSPGPPKDSSAPGGPPERTVTPALSSNVLPRHLGSPATSVPGMGLHPPGPPLARPILPRERGALDRIVEYLVGDGPQNRYALICQQCFSHNGMALKEEFEYIAFRCAYCFFLNPARKTRPQAPRLPEFSFEKRQVVEGSSSVGPLPSGSVLSSDNQFNEESLEHDVLDDNTEQTDDKIPATEQTNQVIEKASDSEEPEEKQETENEEASVIETNSTVPGADSIPDPELSGESLTAE
notes: lunapark (Lnp), human, full length, cloned into pET21b; also called lunapark; source: E. coli BL21-CodonPlus (DE3)-RIPL, purified in Triton X-100 (Ni-NTA, SEC on Superose 6); not shown: His10, C-terminal, kept
In the case of B1, the binding result is on record as “binds”.
